Measured values reported in paper PMC6733935, “A convenient and efficient total solid-phase synthesis of DOTA-functionalized tumor-targeting peptides for PET imaging of cancer” (EJNMMI Research, 2019).
Numbered stars: 1 amine (or outer) side, 2 acyl side, 3 side chain; on linkers, the order of the positions; unused ones are H or OH. Square brackets hold non-standard residues; d marks the D form. Peptide text beside a SMILES is read from it. * marks the point of attachment. DOTA = O=C(O)CN1CCN(CC(=O)O)CCN(CC(=O)*)CCN(CC(=O)O)CC1; Cha = N[C@@H](CC1CCCCC1)C(=O)O; X1 = O=C(CCC(=O)[*:2])CN[*:1]; Nle = CCCC[C@H](N)C(=O)O

Tests used:
[1] = target: T1, BN/GRP receptor-positive MDA-MB-231 human breast cancer cells (Homo sapiens, UniProt P30550); experiment: Saturation binding assay on MDA-MB-231 cells; settings: n = 3-5 experiments
T1 construct: BN/GRP receptor-positive MDA-MB-231, MCF7, T47D human breast cancer, and PC3 human prostate cancer lines; host or cells: MDA-MB-231, MCF7, T47D (human breast cancer), PC3 (human prostate cancer); intact cells
Procedure: (§1) The cell binding of ^68Ga-radiolabeled peptides into BN/GRP receptor-positive MDA-MB-231, MCF7, T47D human breast cancer, and PC3 human prostate cancer lines (American Type Culture Collection, Rockville, MD, USA) was performed according to the method described previously. In brief, ∼ 300,000 cells (in 300 μL in low-serum media) were incubated with various amounts of radiopeptides, ranging between 0.1 and 25 nM of peptide (prepared from the serial dilutions of HPLC-purified radiopeptides), in duplicate for 60 min at room temperature. The initial concentrations of ^68Ga-labeled peptides were determined according to a well-established HPLC technique with simultaneous detection by UV absorbance. As the amount of BN peptide in the reaction mixture was too small to be detected by UV absorption at 220 nm, the radioactive peptide chromatograms from the HPLC analysis were compared (with UV chromatograms) with those of known concentrations of the corresponding nonradioactive peptides for the mass determination. Incubation was terminated by dilution with cold saline (300 μL) and the cells were pelleted by centrifugation. The cell pellets was then rapidly washed with cold saline to remove any unbound peptide and centrifuged to collect supernatants. Radioactivity in the cell pellet and the washings was measured in a γ-counter. Non-specific binding was determined in the presence of ~ 200-fold molar excess of unlabeled BN peptide. Specific binding is calculated by subtracting the non-specifically bound radioactivity from that of the total binding. The dissociation constant (Kd) was calculated using a plot of cell bound activity versus the concentration of the radioligand using GraphPad Prism software (GraphPad Software Inc., San Diego, CA, USA).

[2] = assay type: physicochemical
Procedure: For lipophilicity determination, each HPLC-purified radiopeptide (~ 20 μL, ∼ 25 μCi) was added into a glass tube containing an equal volume mixture of n-octanol and water (1 mL each). The samples were vigorously vortexed for 5 min and subsequently centrifuged (5000 rpm, 5 min) to yield two immiscible layers. Duplicate samples (100 μL) from each layer were carefully taken (to avoid cross-contamination between the layers) for radioactivity measurement using a γ-counter. Partition coefficient was determined by the function: partition coefficient = Log10 (radioactivity in octanol layer/radioactivity in aqueous layer).

[3] = target: T2, BN/GRP receptor-positive PC3 human prostate cancer cells (Homo sapiens, UniProt P30550); experiment: Saturation binding assay on PC3 cells; settings: n = 3-5 experiments
T2 construct: BN/GRP receptor-positive MDA-MB-231, MCF7, T47D human breast cancer, and PC3 human prostate cancer lines; host or cells: MDA-MB-231, MCF7, T47D (human breast cancer), PC3 (human prostate cancer); intact cells
Procedure: as §1

in vivo = experiment: in vivo; design: species or system Balb/c mice; settings: Balb/c, mouse, iv
Procedure: Approval for the animal protocol used in this study was obtained from the Institutional Animal Care and Use Committee. Animal studies were conducted according to the international regulations governing the safe and proper use of laboratory animals. In vivo biodistribution were performed on healthy Balb/c mice (n = 3–5 in each group, body weight 19–22 g) at 1 and 2 h after intravenous injection of the HPLC-purified radiopeptide (100 μL, 15–20 μCi, total peptide dose ~ 20 ng) via the lateral tail vein. The mice were sacrificed by cervical dislocation at specified time points and blood samples were withdrawn with a syringe from the heart. Major organs such as lungs, stomach, spleen, pancreas, intestines, liver, kidneys, etc. were isolated, weighed, and radioactivity in each organs and tissues were measured using a γ-scintillation counter. Uptake of radioactivity in the tissues and organs was expressed as the percent injected dose per gram (% ID/g) of tissue/organ, which was calculated by comparison with standard solutions representing 10% of the injected dose per animal. For the clearance studies, radioactivity in the urine with bladder and feces is expressed as the percent of the injected dose per tissue (% ID). Values are expressed as mean ± SD for a group of 3-5 animals at each time point.

[4] = ~300,000 cells, 0.1-25 nM radiopeptide, 60 min, room temperature, mean ± SD

## CCCC[C@H](NC(=O)[C@H](Cc1c[nH]cn1)NC(=O)[C@H](CC1CCCCC1)NC(=O)[C@@H](NC(=O)[C@H](C)NC(=O)[C@H](Cc1c[nH]c2ccccc12)NC(=O)[C@H](CCC(N)=O)NC(=O)[C@H](CS)NC(=O)CNC(=O)CNC(=O)CCC(=O)CNC(=O)CN1CCN(CC(=O)O)CCN(CC(=O)O)CCN(CC(=O)O)CC1)C(C)C)C(=O)N[C@@H](CCSC)C(N)=O [^68Ga-DOTA-ALA-BN Tris-, metal not drawn] ({DOTA}-[X1]GGCQWAV[Cha]H[Nle]M-NH2)
[1]; SD < 15%
  Bmax (apparent number of binding sites per cell): 1.12 × 10^5 sites/cell
[1]; [4]
  Kd: 14.7 ± 2.24 nM
[2]
  Log P (octanol/water): − 0.88 ± 0.07
[3]; SD < 15%
  Bmax (apparent number of binding sites per cell): 2.63 × 10^5 sites/cell
[3]; [4]
  Kd: 13.5 ± 2.53 nM
In vivo; 1 h
  %ID excreted in Feces: 1.03 ± 0.12 %ID
  %ID excreted in Urine: 71.0 ± 12.45 %ID
  Uptake in Blood: 0.88 ± 0.14 %ID/g
  Uptake in Bone: 0.14 ± 0.03 %ID/g
  Uptake in Intestines (measured without their contents): 0.85 ± 0.13 %ID/g
  Uptake in Kidneys: 3.83 ± 0.67 %ID/g
  Uptake in Liver: 1.78 ± 0.26 %ID/g
  Uptake in Lungs: 0.42 ± 0.10 %ID/g
  Uptake in Pancreas: 0.98 ± 0.13 %ID/g
  Uptake in Spleen: 0.14 ± 0.03 %ID/g
  Uptake in Stomach: 1.44 ± 0.26 %ID/g
In vivo; 2 h
  %ID excreted in Feces: 0.77 ± 0.10 %ID
  %ID excreted in Urine: 78.0 ± 15.0 %ID
  Uptake in Blood: 0.27 ± 0.02 %ID/g
  Uptake in Bone: 0.08 ± 0.01 %ID/g
  Uptake in Intestines (measured without their contents): 0.64 ± 0.14 %ID/g
  Uptake in Kidneys: 2.76 ± 0.49 %ID/g
  Uptake in Liver: 0.86 ± 0.17 %ID/g
  Uptake in Lungs: 0.19 ± 0.03 %ID/g
  Uptake in Pancreas: 0.82 ± 0.12 %ID/g
  Uptake in Spleen: 0.10 ± 0.02 %ID/g
  Uptake in Stomach: 0.53 ± 0.09 %ID/g
